The conditions of series [1]: species, matrix, method and reference not given; cited from earlier work.
The target in series [2] is human somatostatin receptor 5 (human) (UniProt P35346).
Series [3] concerns the target human somatostatin receptor 3 (human) (UniProt P32745).
Series [4] deals with human somatostatin receptor 1 (human) (UniProt P30872). As to the kind of experiment: radioligand binding; competition with 3-[125I]iodotyrosyl11 somatostatin-14 on membrane extracts of CHO-K1 cells expressing the human receptor; agonist 10^-11 to 3 x 10^-7 M, n = 2; 60 min at 25 °C, filtered and counted.
Series [5] addresses human somatostatin receptor 2 (human) (UniProt P30874). Described as above.
Series [6] has as its target human somatostatin receptor 3 (human) (UniProt P32745). The description is as above.
Series [7] addresses human somatostatin receptor 5 (human) (UniProt P35346). The description is as above.

Numbered stars: 1 amine (or outer) side, 2 acyl side, 3 side chain; on linkers, the order of the positions; unused ones are H or OH. Square brackets hold non-standard residues; d marks the D form. Side chains are listed from the residue outwards. Peptide text beside a SMILES is read from it. * marks the point of attachment. Ethylenediamine = C(CN[*:2])N[*:1]; Hyp = O=C(O)[C@@H]1C[C@@H](O)CN1; Phg = N[C@H](C(=O)O)c1ccccc1; CO = O=C([*:1])[*:2]; Bn = c1ccc(C*)cc1

Sequence of human somatostatin receptor 3 (human) (P32745 whole entry): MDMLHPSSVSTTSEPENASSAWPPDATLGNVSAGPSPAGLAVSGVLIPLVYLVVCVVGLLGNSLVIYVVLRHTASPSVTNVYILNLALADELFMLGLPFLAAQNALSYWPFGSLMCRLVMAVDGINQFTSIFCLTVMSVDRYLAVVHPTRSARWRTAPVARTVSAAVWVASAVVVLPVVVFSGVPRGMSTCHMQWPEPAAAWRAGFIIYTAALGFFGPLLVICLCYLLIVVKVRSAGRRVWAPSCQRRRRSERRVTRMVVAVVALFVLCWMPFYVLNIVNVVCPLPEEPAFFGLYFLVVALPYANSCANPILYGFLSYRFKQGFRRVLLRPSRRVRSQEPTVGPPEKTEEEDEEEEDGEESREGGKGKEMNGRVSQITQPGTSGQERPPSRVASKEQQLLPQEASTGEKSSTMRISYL
Sequence of human somatostatin receptor 5 (human) (P35346 whole entry): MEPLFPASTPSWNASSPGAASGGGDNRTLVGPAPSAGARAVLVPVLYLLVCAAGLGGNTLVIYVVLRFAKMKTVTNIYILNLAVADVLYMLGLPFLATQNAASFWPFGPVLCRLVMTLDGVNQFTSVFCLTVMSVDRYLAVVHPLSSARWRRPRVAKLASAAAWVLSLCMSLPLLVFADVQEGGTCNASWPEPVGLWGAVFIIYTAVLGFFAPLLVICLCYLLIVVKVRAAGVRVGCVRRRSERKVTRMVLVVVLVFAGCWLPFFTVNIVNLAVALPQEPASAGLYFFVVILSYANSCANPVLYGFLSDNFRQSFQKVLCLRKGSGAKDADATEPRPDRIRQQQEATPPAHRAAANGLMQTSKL
Sequence of human somatostatin receptor 2 (human) (P30874 whole entry): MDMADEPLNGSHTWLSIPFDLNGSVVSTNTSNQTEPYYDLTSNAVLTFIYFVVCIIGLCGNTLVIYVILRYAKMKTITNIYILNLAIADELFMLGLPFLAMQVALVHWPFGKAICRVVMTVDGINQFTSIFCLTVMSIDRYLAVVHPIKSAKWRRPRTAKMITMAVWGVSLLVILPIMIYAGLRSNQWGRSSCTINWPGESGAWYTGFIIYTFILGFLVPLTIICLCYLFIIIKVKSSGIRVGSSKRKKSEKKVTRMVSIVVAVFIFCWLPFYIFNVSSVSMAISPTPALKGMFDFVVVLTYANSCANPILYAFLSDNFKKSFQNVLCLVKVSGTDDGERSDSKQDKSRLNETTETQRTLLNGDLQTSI
Sequence of human somatostatin receptor 1 (human) (P30872 whole entry): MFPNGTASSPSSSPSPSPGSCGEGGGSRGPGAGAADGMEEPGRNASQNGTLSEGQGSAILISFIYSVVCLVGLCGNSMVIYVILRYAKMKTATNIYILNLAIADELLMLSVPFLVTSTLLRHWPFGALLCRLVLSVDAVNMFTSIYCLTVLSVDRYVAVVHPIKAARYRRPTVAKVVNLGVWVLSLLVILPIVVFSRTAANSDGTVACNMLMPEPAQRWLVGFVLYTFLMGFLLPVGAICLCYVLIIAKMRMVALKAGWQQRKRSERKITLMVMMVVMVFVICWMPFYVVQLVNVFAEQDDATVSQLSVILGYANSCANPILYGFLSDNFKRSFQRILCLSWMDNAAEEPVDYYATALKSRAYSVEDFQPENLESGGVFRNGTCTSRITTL

Take `C[C@@H](O)[C@@H]1NC(=O)[C@H](CCCCN)NC(=O)[C@@H](Cc2c[nH]c3ccccc23)NC(=O)[C@H](Cc2ccccc2)NC(=O)[C@@H](NC(=O)[C@H](N)Cc2ccccc2)CSSC[C@@H](C(=O)N[C@H](CO)[C@@H](C)O)NC1=O` [Octreotide]: the Half-time life in series [1] is 2 h.

Take `NCCCC[C@@H]1NC(=O)[C@@H](Cc2c[nH]c3ccccc23)NC(=O)[C@H](c2ccccc2)NC(=O)[C@@H]2C[C@@H](OC(=O)NCCN)CN2C(=O)[C@H](Cc2ccccc2)NC(=O)[C@H](Cc2ccc(OCc3ccccc3)cc2)NC1=O` [Pasireotide] (cyclo([Hyp]([CO-Ethylenediamine])[Phg][dW]KY(Bn)F)): the Half-time life in series [1] is 18 h.

Take `C[C@H](N)C(=O)NCC(=O)N[C@H]1CSSC[C@@H](C(=O)O)NC(=O)[C@H](CO)NC(=O)[C@H]([C@@H](C)O)NC(=O)[C@H](Cc2ccccc2)NC(=O)[C@H]([C@@H](C)O)NC(=O)[C@H](CCCCN)NC(=O)[C@H](Cc2c[nH]c3ccccc23)NC(=O)[C@H](Cc2ccccc2)NC(=O)[C@H](Cc2ccccc2)NC(=O)[C@H](CC(N)=O)NC(=O)[C@H](CCCCN)NC1=O` [SST-14]: the Half-time life in series [1] is 0.0417 h.

`CSCC[C@H](NC(=O)[C@H](C)NC(=O)[C@@H]1CCCN1C(=O)[C@H](CC(N)=O)NC(=O)[C@H](CO)NC(=O)[C@H](CC(N)=O)NC(=O)[C@H](C)NC(=O)[C@@H](N)CO)C(=O)N[C@@H](C)C(=O)N1CCC[C@H]1C(=O)N[C@@H](CCCNC(=N)N)C(=O)N[C@@H](CCC(=O)O)C(=O)N[C@@H](CCCNC(=N)N)C(=O)N[C@@H](CCCCN)C(=O)N[C@@H](C)C(=O)NCC(=O)N[C@H]1CSSC[C@@H](C(=O)O)NC(=O)[C@H](CO)NC(=O)[C@H]([C@@H](C)O)NC(=O)[C@H](Cc2ccccc2)NC(=O)[C@H]([C@@H](C)O)NC(=O)[C@H](CCCCN)NC(=O)[C@H](Cc2c[nH]c3ccccc23)NC(=O)[C@H](Cc2ccccc2)NC(=O)[C@H](Cc2ccccc2)NC(=O)[C@H](CC(N)=O)NC(=O)[C@H](CCCCN)NC1=O` [SST-28]: the Half-time life in series [1] is 0.0333 h.

Take Octreotide (peptide): the receptor internalization in U2OS cells transfected with SSTR5-tGFP, 10^-9 to 10^-5 M, 7 h; the cell gives 10^-5 M (10^-6 M) (% of activity) in series [2] worked out at 39.3.

The term IC50 denotes the midpoint of a concentration-inhibition curve. Higher therefore signals weaker potency. On to Pasireotide (peptide), for which the EC50 of GIRK2 channel activation via SSTR3 in transfected HEK293 cells (fluorescence membrane potential assay) in series [3] came to 63 nM. Further, the receptor internalization in U2OS cells transfected with SSTR3-tGFP, 10^-9 to 10^-5 M, 3 h; the cell gives 10^-5 M (10^-6 M) (% of activity) in series [3] amounted to 46.3. Also, the EC50 of GIRK2 channel activation via SSTR5 in transfected HEK293 cells (fluorescence membrane potential assay) in series [2] was determined as 16.5 nM. Besides, in series [2], the receptor internalization in U2OS cells transfected with SSTR5-tGFP, 10^-9 to 10^-5 M, 7 h; the cell gives 10^-5 M (10^-6 M) (% of activity) was determined as 43.9. The IC50 was found to be 43.9 nM in series [4], 5.5 nM in series [5], 2.73 nM in series [6] and 0.37 nM in series [7].
